Columns and labels:
TraI relaxase wild-type [1] = molecular target: T1, TraI relaxase wild-type (Escherichia coli conjugative plasmid R1 …, UniProt Q6TDU5 1-1756); assay: limited trypsin proteolysis; open, protease-sensitive conformer; Anisotropy: 10 nM 22-merAlexa488, 50 mM Tris pH 7.2, 100 mM NaCl, 25 C, 20 min; complexes for gel filtration: protein and ssDNA mixed on ice 10 min (stocks in 50 mM Tris pH 7.2, 100 mM NaCl); EPR complexes: PBS pH 7.4, 1 mM MgCl2; conditions: protein: recombinant; tags: N-terminal His6 with enterokinase site; inverted repeat
TraI relaxase wild-type [2] = molecular target: T1, TraI relaxase wild-type; assay: size exclusion chromatography; protein:ssDNA 1:1, 2:1, 4:1; TraI dimer forms on 49-mer; Anisotropy: 10 nM 22-merAlexa488, 50 mM Tris pH 7.2, 100 mM NaCl, 25 C, 20 min; complexes for gel filtration: protein and ssDNA mixed on ice 10 min (stocks in 50 mM Tris pH 7.2, 100 mM NaCl); EPR complexes: PBS pH 7.4, 1 mM MgCl2; conditions: protein: recombinant; tags: N-terminal His6 with enterokinase site; inverted repeat 5' of nic
TraI-MBP = TraI-MBP (Escherichia coli conjugative plasmid R1?, UniProt Q6TDU5 1-1756); assay: size exclusion chromatography; after 365 nm photocleavage, peak IV; Anisotropy: 10 nM 22-merAlexa488, 50 mM Tris pH 7.2, 100 mM NaCl, 25 C, 20 min; complexes for gel filtration: protein and ssDNA mixed on ice 10 min (stocks in 50 mM Tris pH 7.2, 100 mM NaCl); EPR complexes: PBS pH 7.4, 1 mM MgCl2; conditions: protein: recombinant; tags: N-terminal His6 with enterokinase site; C-terminal MBP via TPGSP linker; label: 3'-6-FAM
TraI1-1475 = molecular target: T2, TraI1-1475 (Escherichia coli conjugative plasmid R1?, UniProt Q6TDU5 1-1475); assay: size exclusion chromatography; after 365 nm photocleavage, peak V; Anisotropy: 10 nM 22-merAlexa488, 50 mM Tris pH 7.2, 100 mM NaCl, 25 C, 20 min; complexes for gel filtration: protein and ssDNA mixed on ice 10 min (stocks in 50 mM Tris pH 7.2, 100 mM NaCl); EPR complexes: PBS pH 7.4, 1 mM MgCl2; conditions: protein: recombinant; tags: N-terminal His6 with enterokinase site; label: 5'-Cy5; inverted repeat
T2 sequence: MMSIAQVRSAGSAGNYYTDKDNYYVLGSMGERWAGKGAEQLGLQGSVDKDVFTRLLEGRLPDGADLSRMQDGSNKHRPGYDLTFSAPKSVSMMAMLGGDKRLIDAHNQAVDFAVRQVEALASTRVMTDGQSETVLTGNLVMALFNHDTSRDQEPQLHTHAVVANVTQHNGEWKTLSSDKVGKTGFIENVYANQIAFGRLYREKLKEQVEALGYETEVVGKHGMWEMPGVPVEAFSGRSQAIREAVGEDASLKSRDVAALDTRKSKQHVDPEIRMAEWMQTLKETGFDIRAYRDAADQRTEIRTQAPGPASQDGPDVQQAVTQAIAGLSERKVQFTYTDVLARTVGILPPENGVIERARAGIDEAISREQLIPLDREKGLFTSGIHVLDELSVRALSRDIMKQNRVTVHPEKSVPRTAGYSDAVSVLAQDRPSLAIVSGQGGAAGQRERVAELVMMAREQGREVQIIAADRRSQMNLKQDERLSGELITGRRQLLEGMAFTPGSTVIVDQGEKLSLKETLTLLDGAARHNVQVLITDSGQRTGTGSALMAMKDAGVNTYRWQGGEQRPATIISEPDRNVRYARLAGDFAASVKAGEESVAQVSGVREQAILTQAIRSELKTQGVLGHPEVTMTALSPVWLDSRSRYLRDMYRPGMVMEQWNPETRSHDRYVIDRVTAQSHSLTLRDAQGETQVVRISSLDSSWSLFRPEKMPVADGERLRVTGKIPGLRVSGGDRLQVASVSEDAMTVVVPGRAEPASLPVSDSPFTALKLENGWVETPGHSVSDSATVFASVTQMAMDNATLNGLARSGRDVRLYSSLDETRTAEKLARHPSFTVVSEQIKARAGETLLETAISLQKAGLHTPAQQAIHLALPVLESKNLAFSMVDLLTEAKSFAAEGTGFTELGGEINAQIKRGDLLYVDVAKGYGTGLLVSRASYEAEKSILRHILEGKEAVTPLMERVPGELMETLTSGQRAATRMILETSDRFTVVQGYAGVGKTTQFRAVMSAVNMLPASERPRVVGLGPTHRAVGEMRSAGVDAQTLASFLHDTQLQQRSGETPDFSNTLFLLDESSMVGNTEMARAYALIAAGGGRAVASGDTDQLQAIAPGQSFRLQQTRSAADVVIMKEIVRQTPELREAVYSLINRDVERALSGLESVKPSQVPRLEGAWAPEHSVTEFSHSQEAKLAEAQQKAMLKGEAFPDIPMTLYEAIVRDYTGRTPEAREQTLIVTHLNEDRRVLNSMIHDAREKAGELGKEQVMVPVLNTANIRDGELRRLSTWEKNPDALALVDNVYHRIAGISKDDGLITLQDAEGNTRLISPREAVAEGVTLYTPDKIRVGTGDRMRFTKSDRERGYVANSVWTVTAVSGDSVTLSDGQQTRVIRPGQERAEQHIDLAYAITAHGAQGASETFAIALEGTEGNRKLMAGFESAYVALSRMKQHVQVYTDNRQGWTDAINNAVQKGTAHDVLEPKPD

TraI A1105W/M795A = TraI A1105W/M795A (Escherichia coli conjugative plasmid R1?, UniProt Q6TDU5 1-1756, A1105W;M795A); assay: fluorescence anisotropy; higher affinity than the single mutants A1105W and M795A; Kd only in figure; Anisotropy: 10 nM 22-merAlexa488, 50 mM Tris pH 7.2, 100 mM NaCl, 25 C, 20 min; complexes for gel filtration: protein and ssDNA mixed on ice 10 min (stocks in 50 mM Tris pH 7.2, 100 mM NaCl); EPR complexes: PBS pH 7.4, 1 mM MgCl2; conditions: protein: recombinant; tags: N-terminal His6 with enterokinase site; label: 3'-Alexa488
TraI relaxase wild-type [3] = molecular target: T1, TraI relaxase wild-type; assay: limited trypsin proteolysis; 1:1 complex; pattern as with 22-mer; Anisotropy: 10 nM 22-merAlexa488, 50 mM Tris pH 7.2, 100 mM NaCl, 25 C, 20 min; complexes for gel filtration: protein and ssDNA mixed on ice 10 min (stocks in 50 mM Tris pH 7.2, 100 mM NaCl); EPR complexes: PBS pH 7.4, 1 mM MgCl2; conditions: protein: recombinant; tags: N-terminal His6 with enterokinase site

## GCAAAAACTTGTTTTTGCGTGGGGTGTGGT (ssDNA) [30-mer]
TraI relaxase wild-type [1]
  binding result: binds

## GCAAAAACTTGTTTTTGCGTGGGGTGTGGTGCTTTTGGTGGTGAGAACC (ssDNA) [49-mer oriT]
TraI relaxase wild-type [2]
  binding result: binds

## GCTTTTGGTGGTGAGAACC (ssDNA, 5' end from PC linker photocleavage) [19-mer-6-FAM photocleavage product]
TraI-MBP
  binding result: binds

## GCAAAAACTTGTTTTTGCGTGGGGTGTGGT (ssDNA, 3' end from PC linker photocleavage) [Cy5-30-mer photocleavage product]
TraI1-1475
  binding result: binds

## GGTGCTTTTGGTGGTGAGAACC (ssDNA) [22-merAlexa488]
TraI A1105W/M795A
  binding result: binds

## GCTTTTGGTGGTGAGAACC (ssDNA) [19-mer]
TraI relaxase wild-type [3]
  binding result: binds
